Measurements from publication PMC11804915, “Single-stranded DNA binding to the transcription factor PafBC triggers the mycobacterial DNA damage response”.

Legend:
[1] = target: RNAP-sigmaA holoenzyme with RbpA (Mycobacterium smegmatis SMR5 …, UniProt A0QSL8;P60281;A0QS66;A0QWT1;A0QW02;A0QZ11 1-350;1-1169;1-1317;1-107;1-466;1-114); assay: EMSA; nonspecific binding; ssDNA EMSA: 22.5 mM Hepes-KOH pH 7.8, 135 mM NaCl, 20 mM KCl, 5 mM MgCl2, 1 mM DTT, 37 C 15 min, 10 nM DNA, 0-16 uM PafBC; RNAP EMSA: 20 mM Hepes-NaOH pH 8, 100 mM K-acetate, 36 mM NaCl, 10 mM MgCl2, 2 mM DTT, 37 C 30 min; conditions: protein: native, tags: TwinStrep on RpoC, His6 removed from SigA, chain copies: 2;1;1;1;1;1, blunt
PafBC WT [2] = target: T1, PafBC WT (Mycobacterium smegmatis, UniProt A4ZHT0;A0QZ41 1-331;1-318); assay: EMSA; ssDNA EMSA: 22.5 mM Hepes-KOH pH 7.8, 135 mM NaCl, 20 mM KCl, 5 mM MgCl2, 1 mM DTT, 37 C 15 min, 10 nM DNA, 0-16 uM PafBC; RNAP EMSA: 20 mM Hepes-NaOH pH 8, 100 mM K-acetate, 36 mM NaCl, 10 mM MgCl2, 2 mM DTT, 37 C 30 min; conditions: protein: recombinant, tags: C-terminal Strep on PafC, copies: 1;1, label: internal fluorescein-dT
T1 sequence 1: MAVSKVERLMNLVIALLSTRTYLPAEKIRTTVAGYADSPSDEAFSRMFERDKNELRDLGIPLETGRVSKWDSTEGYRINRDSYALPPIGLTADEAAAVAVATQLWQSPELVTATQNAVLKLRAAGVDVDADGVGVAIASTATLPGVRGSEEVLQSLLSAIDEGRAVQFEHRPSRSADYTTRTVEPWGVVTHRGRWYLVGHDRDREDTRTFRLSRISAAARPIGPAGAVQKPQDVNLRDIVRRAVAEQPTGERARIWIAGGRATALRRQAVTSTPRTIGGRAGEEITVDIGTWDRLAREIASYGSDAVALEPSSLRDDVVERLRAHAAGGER
T1 sequence 2: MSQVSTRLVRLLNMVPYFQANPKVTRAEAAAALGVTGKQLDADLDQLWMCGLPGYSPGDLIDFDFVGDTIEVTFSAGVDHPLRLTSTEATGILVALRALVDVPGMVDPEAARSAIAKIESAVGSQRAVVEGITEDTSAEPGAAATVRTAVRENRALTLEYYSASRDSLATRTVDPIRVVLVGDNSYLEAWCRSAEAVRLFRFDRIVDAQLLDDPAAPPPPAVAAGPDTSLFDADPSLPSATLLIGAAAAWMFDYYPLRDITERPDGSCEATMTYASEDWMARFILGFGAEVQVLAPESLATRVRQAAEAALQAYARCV

PafBC WT, cryo-EM sample = target: T2, PafBC WT, cryo-EM sample (Mycobacterium smegmatis, UniProt A4ZHT0;A0QZ41 1-331;1-318); assay: cryo-EM; within RNAP-sigmaA promoter complex; formaldehyde-fixed; second entry 9FNE; ssDNA EMSA: 22.5 mM Hepes-KOH pH 7.8, 135 mM NaCl, 20 mM KCl, 5 mM MgCl2, 1 mM DTT, 37 C 15 min, 10 nM DNA, 0-16 uM PafBC; RNAP EMSA: 20 mM Hepes-NaOH pH 8, 100 mM K-acetate, 36 mM NaCl, 10 mM MgCl2, 2 mM DTT, 37 C 30 min; conditions: protein: recombinant; copies: 1;1; single strand
T2 sequence 1: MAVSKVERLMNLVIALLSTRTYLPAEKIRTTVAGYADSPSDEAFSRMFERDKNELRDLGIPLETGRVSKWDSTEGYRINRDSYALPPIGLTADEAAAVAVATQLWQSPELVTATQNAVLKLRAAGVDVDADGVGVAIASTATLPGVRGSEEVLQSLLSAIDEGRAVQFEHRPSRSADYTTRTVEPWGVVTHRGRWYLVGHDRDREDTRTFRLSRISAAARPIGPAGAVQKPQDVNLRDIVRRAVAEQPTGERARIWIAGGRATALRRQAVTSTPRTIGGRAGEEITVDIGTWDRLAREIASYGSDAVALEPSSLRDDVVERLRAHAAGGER
T2 sequence 2: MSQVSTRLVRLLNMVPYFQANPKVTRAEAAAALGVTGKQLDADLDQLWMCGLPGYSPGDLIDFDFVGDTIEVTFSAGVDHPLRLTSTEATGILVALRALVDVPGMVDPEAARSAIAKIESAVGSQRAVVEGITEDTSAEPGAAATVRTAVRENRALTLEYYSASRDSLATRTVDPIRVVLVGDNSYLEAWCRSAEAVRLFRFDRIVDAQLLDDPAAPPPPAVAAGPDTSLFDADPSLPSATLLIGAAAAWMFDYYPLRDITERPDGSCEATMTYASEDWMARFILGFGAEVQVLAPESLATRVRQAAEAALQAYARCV

PafBC WT [3] = target: T1, PafBC WT; assay: analytical gel filtration; ssDNA:PafBC stoichiometry ~1:1; ssDNA EMSA: 22.5 mM Hepes-KOH pH 7.8, 135 mM NaCl, 20 mM KCl, 5 mM MgCl2, 1 mM DTT, 37 C 15 min, 10 nM DNA, 0-16 uM PafBC; RNAP EMSA: 20 mM Hepes-NaOH pH 8, 100 mM K-acetate, 36 mM NaCl, 10 mM MgCl2, 2 mM DTT, 37 C 30 min; conditions: protein: recombinant; tags: C-terminal Strep on PafC; copies: 1;1; single strand
[4] = target: RNAP-sigmaA holoenzyme with RbpA;PafBC WT (Mycobacterium smegmatis SMR5 …, UniProt A0QSL8;P60281;A0QS66;A0QWT1;A0QW02;A0QZ11;A4ZHT0;A0QZ41 …, |); assay: EMSA; 5 uM dT12 ssDNA; PafBC shifts RNAP-DNA band; ssDNA EMSA: 22.5 mM Hepes-KOH pH 7.8, 135 mM NaCl, 20 mM KCl, 5 mM MgCl2, 1 mM DTT, 37 C 15 min, 10 nM DNA, 0-16 uM PafBC; RNAP EMSA: 20 mM Hepes-NaOH pH 8, 100 mM K-acetate, 36 mM NaCl, 10 mM MgCl2, 2 mM DTT, 37 C 30 min; conditions: protein: native;recombinant; tags: TwinStrep on RpoC; His6 removed from SigA;C-terminal Strep on PafC; chain copies: 2;1;1;1;1;1;1;1; label: 5' FAM on strand 1; blunt, internal non-complementary bubble 13 nt
[5] = target: RNAP-sigmaA holoenzyme with RbpA;CarD;PafBC WT (Mycobacterium smegmatis SMR5 …, UniProt A0QSL8;P60281;A0QS66;A0QWT1;A0QW02;A0QZ11;A0R561;A4ZHT0;A0QZ41 …, ||); assay: EMSA; ssDNA …; no effect of CarD on complex formation; ssDNA EMSA: 22.5 mM Hepes-KOH pH 7.8, 135 mM NaCl, 20 mM KCl, 5 mM MgCl2, 1 mM DTT, 37 C 15 min, 10 nM DNA, 0-16 uM PafBC; RNAP EMSA: 20 mM Hepes-NaOH pH 8, 100 mM K-acetate, 36 mM NaCl, 10 mM MgCl2, 2 mM DTT, 37 C 30 min; conditions: protein: native;recombinant;recombinant; tags: TwinStrep on RpoC; His6 removed from SigA;His6-thioredoxin removed by TEV;C-terminal Strep on PafC; chain copies: 2;1;1;1;1;1;1;1;1; label: 5' FAM on strand 1; blunt, internal non-complementary bubble 13 nt
[6] = target: RNAP-sigmaA holoenzyme with RbpA;CarD;PafBC, PafB Y196A (Mycobacterium smegmatis SMR5 …, UniProt A0QSL8;P60281;A0QS66;A0QWT1;A0QW02;A0QZ11;A0R561;A4ZHT0;A0QZ41 …, ||Y196A); assay: EMSA; 5 uM dT12 ssDNA; retains association with RNAP; ssDNA EMSA: 22.5 mM Hepes-KOH pH 7.8, 135 mM NaCl, 20 mM KCl, 5 mM MgCl2, 1 mM DTT, 37 C 15 min, 10 nM DNA, 0-16 uM PafBC; RNAP EMSA: 20 mM Hepes-NaOH pH 8, 100 mM K-acetate, 36 mM NaCl, 10 mM MgCl2, 2 mM DTT, 37 C 30 min; conditions: protein: native;recombinant;recombinant; tags: TwinStrep on RpoC; His6 removed from SigA;His6-thioredoxin removed by TEV;C-terminal Strep on PafC; chain copies: 2;1;1;1;1;1;1;1;1; label: 5' FAM on strand 1; blunt, internal non-complementary bubble 13 nt
[7] = target: RNAP-sigmaA holoenzyme with RbpA;CarD;PafBC, PafC WYL variant (Mycobacterium smegmatis SMR5 …, UniProt A0QSL8;P60281;A0QS66;A0QWT1;A0QW02;A0QZ11;A0R561;A4ZHT0;A0QZ41 …, ||R201A;R204A); assay: EMSA; 5 uM dT12 ssDNA; efficiency similar to WT; ssDNA EMSA: 22.5 mM Hepes-KOH pH 7.8, 135 mM NaCl, 20 mM KCl, 5 mM MgCl2, 1 mM DTT, 37 C 15 min, 10 nM DNA, 0-16 uM PafBC; RNAP EMSA: 20 mM Hepes-NaOH pH 8, 100 mM K-acetate, 36 mM NaCl, 10 mM MgCl2, 2 mM DTT, 37 C 30 min; conditions: protein: native;recombinant;recombinant; tags: TwinStrep on RpoC; His6 removed from SigA;His6-thioredoxin removed by TEV;C-terminal Strep on PafC; chain copies: 2;1;1;1;1;1;1;1;1; label: 5' FAM on strand 1; blunt, internal non-complementary bubble 13 nt
[8] = target: RNAP-sigmaA holoenzyme with RbpA;CarD;PafBC, PafB R181A/R204A/R208A (Mycobacterium smegmatis SMR5 …, UniProt A0QSL8;P60281;A0QS66;A0QWT1;A0QW02;A0QZ11;A0R561;A4ZHT0;A0QZ41 …, ||R204A;R208A;PafB:R181A); assay: EMSA; 5 uM dT12 ssDNA; PafBC variant does not join RNAP-DNA; ssDNA EMSA: 22.5 mM Hepes-KOH pH 7.8, 135 mM NaCl, 20 mM KCl, 5 mM MgCl2, 1 mM DTT, 37 C 15 min, 10 nM DNA, 0-16 uM PafBC; RNAP EMSA: 20 mM Hepes-NaOH pH 8, 100 mM K-acetate, 36 mM NaCl, 10 mM MgCl2, 2 mM DTT, 37 C 30 min; conditions: protein: native;recombinant;recombinant; tags: TwinStrep on RpoC; His6 removed from SigA;His6-thioredoxin removed by TEV;C-terminal Strep on PafC; chain copies: 2;1;1;1;1;1;1;1;1; label: 5' FAM on strand 1; blunt, internal non-complementary bubble 13 nt
[9] = target: RNAP-sigmaA holoenzyme with RbpA;CarD;PafBC, PafB WYL variant (Mycobacterium smegmatis SMR5 …, UniProt A0QSL8;P60281;A0QS66;A0QWT1;A0QW02;A0QZ11;A0R561;A4ZHT0;A0QZ41 …, ||R214A;PafB:R211A); assay: as above; conditions: protein: native;recombinant;recombinant; tags: TwinStrep on RpoC; His6 removed from SigA;His6-thioredoxin removed by TEV;C-terminal Strep on PafC; chain copies: 2;1;1;1;1;1;1;1;1; label: 5' FAM on strand 1; blunt, internal non-complementary bubble 13 nt

B1: housekeeping promoter with -10 bubble (dsDNA)
DNA 1: CCCCGTTTTGGGGCAGATGCGATTCTGAAATACTGCTTTGTCTGGCTTGTCAAGTCGCTCTGGACCGGGTTGTTTTC
DNA 2: GAAAACAACCCGGTCCAGAGCGACTTGACAAGCCAGACAAAGCAGTATTAAGCTGGCAGGGTTGCCCCAAAACGGGG
B1: binds ([1]; label: 5' FAM on strand 2, internal non-complementary bubble).

B2: hairpin DNA control (structured_DNA)
DNA: GGGCCCGGGCCCGGTATATCCGGGCCCGGGCCC
B2: no binding (PafBC WT [2]; hairpin, 14 bp stem, 5 nt loop).

B3: nonspecific DNA with bubble (dsDNA)
DNA 1: GTCGTGAAGGACACCGCCGAAGCGCCCAAGACGGCCGACGAGAAAGCCGCCGAGGCCACCGGGCCCAGCAAGGTCAA
DNA 2: TTGACCTTGCTGGGCGTCAGCATGCGAACGGCTTTCTCGTCGGCCGTCTTGGGCGCTTCGGCGGTGTCCTTCACGAC
B3: binds ([1]; label: 5' FAM on strand 1, internal non-complementary bubble).

B4: cryo-EM ssDNA ligand (ssDNA)
DNA: TTGTTGTTGTT
B4: binds (PafBC WT, cryo-EM sample).

B5: dT20 ssDNA unlabeled (ssDNA)
DNA: TTTTTTTTTTTTTTTTTTTT
B5: binds (PafBC WT [3]).

B6: blocked end ssDNA (dT12 between two hairpins) (structured_DNA)
DNA: GGGCCCGGGCCCGGTATATCCGGGCCCGGGCCCTTTTTTTTTTTTCCCGGGCCCGGGCCTATATGGCCCGGGCCCGGG
B6: binds (PafBC WT [2]; two hairpins, 14 bp stems, 5 nt loops).

B7: PafBC-specific promoter with -10 bubble (dsDNA)
DNA 1: TCGTCTACTGTGGTGAAGAGTTCGACCGGACTTGTCGGTGGTCTGCTCTAACGTCACGGCCAACCGATCGGAACACC
DNA 2: GGTGTTCCGATCGGTACCGGACATGTAAAGAGCAGACCACCGACAAGTCCGGTCGAACTCTTCACCACAGTAGACGA
B7: binds [4]; binds [5]; binds [6]. B7: binds ([1]; label: 5' FAM on strand 1, internal non-complementary bubble 13 nt); binds [7]; no binding [8]. B7: no binding [9].
